According to the supplement of paper PMC10126150:
± gives the standard deviation of the averaged measurements.

System: ATP
Test: switch fluorescence ratio, 500 uM ATP over buffer (Cy3 cluster intensity, sum of 5 cycles each) (fold (ratio)); higher = stronger signal-on switching upon ATP binding; sequences stand for … in TCGTCGGCAGCGTCAGATGTGTATAAGAGACAGTTTTTTTTTTTTTTTTTTTTTTTTT…TC
Conditions: aptamer strand: ATP DNA aptamer (quencher-CACCTGGGGGAGTATTGCGGAGGAAGG + anchor), 100 nM annealed; ATP concentration: 500 uM
Method in brief: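 Clusters with intensities outside 100-1000 RFU were excluded. The remaining Cy3-labelled switching-strand clusters on a modified Illumina MiSeq flow-cell had been annealed to 100 nM quencher-labelled ATP aptamer and imaged in selection buffer, then after 15 min with 500 uM ATP at 22 °C, for five cycles separated by NaOH stripping and re-annealing. The fluorescence ratio, averaged per switch-domain sequence, is each cluster's summed target-cycle Cy3 intensity over its summed buffer-cycle Cy3 intensity.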
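Further: ATP exposure 15 min at 22 °C before imaging.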

Sequence | switch fluorescence ratio
GGAAGTAAAA | 1.03 ± 0.076
GGAAGTCGGT | 0.968 ± 0.022
GGAAGTCGTT | 0.994 ± 0.016
GGAAGTTACA | 1.06 ± 0.016
GGAATAATTT | 1.51 ± 0.73
GGAATAGGAG | 1.037 ± 0.0095
GGAATAGTAG | 1.003 ± 0.0065
GGAATCAAGG | 1.02 ± 0.035
GGAATCCGTA | 1.05 ± 0.046
GGAATCTAGT | 0.999 ± 0.018
GGAATGGGCG | 1.02 ± 0.042
GGAATGGGTC | 0.9736 ± 0.0087
GGAATGGTCG | 0.977 ± 0.13
GGAATGTGCG | 0.9794 ± 0.0042
GGAATGTTAG | 0.986 ± 0.012
GGAATTACTG | 1.04 ± 0.033
GGAATTGGGC | 1.03 ± 0.022
GGAATTTCTG | 0.945 ± 0.014
GGACAATTTT | 0.977 ± 0.0015
GGACACTACC | 1.25 ± 0.036
GGACAGAGTT | 0.9801 ± 0.0013
GGACATTTAG | 1.03 ± 0.017
GGACCATGAC | 1.14 ± 0.0075
GGACCCAATG | 0.986 ± 0.011
GGACCGCCTG | 1.01 ± 0.011
GGACCTGGCG | 1.08 ± 0.15

Sequence | switch fluorescence ratio
GGACGGGGGA | 1.02 ± 0.054
GGACGTGTTG | 0.983 ± 0.033
GGACTAGAGC | 1.01 ± 0.069
GGACTAGGGA | 1.01 ± 0.018
GGACTAGGTG | 1.16 ± 0.044
GGACTCCCGG | 0.99 ± 0.011
GGACTCGGGG | 1.04 ± 0.043
GGACTGGAGC | 0.9905 ± 0.0021
GGACTGGATG | 1 ± 0.031
GGACTTAGGG | 0.9839 ± 0.0075
GGACTTCTGG | 0.998 ± 0.041
GGACTTGGTC | 0.972 ± 0.019
GGAGAACCCT | 1.07 ± 0.038
GGAGACATGT | 1.006 ± 0.0022
GGAGACCGCT | 1.02 ± 0.034
GGAGAGGGGT | 0.99 ± 0.035
GGAGATAGGG | 1.03 ± 0.017
GGAGATGCGG | 1.02 ± 0.011
GGAGATTGCA | 1.058 ± 0.0089
GGAGCCGGGC | 1.01 ± 0.013
GGAGCGGGGT | 1.03 ± 0.019
GGAGCTGTCG | 0.9774 ± 0.0094
GGAGCTTTGG | 0.998 ± 0.035
GGAGGAACAT | 1.02 ± 0.016
GGAGGAAGTA | 1.03 ± 0.044
GGAGGAAGTC | 0.975 ± 0.0024

Sequence | switch fluorescence ratio
GGAGGACTTT | 0.9826 ± 0.0028
GGAGGAGGCA | 0.997 ± 0.033
GGAGGAGGTG | 1.02 ± 0.065
GGAGGATACG | 1.02 ± 0.025
GGAGGATGCT | 0.948 ± 0.053
GGAGGGCTTT | 0.956 ± 0.064
GGAGGGGCGG | 1.01 ± 0.043
GGAGGGGGGG | 1.02 ± 0.042
GGAGGGGTTA | 0.978 ± 0.015
GGAGGGTTGT | 0.979 ± 0.04
GGAGGGTTTT | 1.01 ± 0.035
GGAGGTAGGG | 0.99915 ± 0.00057
GGAGGTTGTG | 0.987 ± 0.017
GGAGTAACAT | 1.04 ± 0.012
GGAGTCATAC | 1.63 ± 0.035
GGAGTTAATC | 1.04 ± 0.037
GGAGTTAATT | 1.02 ± 0.013
GGAGTTCCAG | 0.978 ± 0.048
GGAGTTGGG | 0.968 ± 0.012
GGAGTTTGGT | 1.01 ± 0.056
GGATAACTCT | 1.01 ± 0.015
GGATAAGGAA | 0.9698 ± 0.0076
GGATAAGGCC | 1 ± 0.012
GGATACGGGC | 1.02 ± 0.079
GGATAGAGAA | 0.9789 ± 0.008
GGATAGAGCT | 1 ± 0.034

Sequence | switch fluorescence ratio
GGATAGAGTA | 1.01 ± 0.0075
GGATAGGGCG | 0.946 ± 0.1
GGATATGGGG | 0.99 ± 0.012
GGATATTGCT | 0.949 ± 0.043
GGATCCAAAT | 0.947 ± 0.017
GGATCGAAGG | 0.96 ± 0.039
GGATCGGGCG | 0.973 ± 0.051
GGATCGTTGA | 0.977 ± 0.019
GGATCTACCG | 1.01 ± 0.032
GGATCTTTGA | 0.989 ± 0.027
GGATGATGA | 1.01 ± 0.061
GGATGATGGT | 0.985 ± 0.037
GGATGCGGGT | 1 ± 0.03
GGATGGAAGG | 0.963 ± 0.033
GGATGGACAG | 1 ± 0.01
GGATGGATGG | 0.993 ± 0.082
GGATGGCTTC | 0.9987 ± 0.0023
GGATGGGCTG | 1 ± 0.094
GGATGGGGGG | 0.986 ± 0.016
GGATGGGGGT | 0.9972 ± 0.0097
GGATGGGGTT | 1 ± 0.018
GGATGGGTGG | 0.99 ± 0.025
GGATGGTGGA | 0.9966 ± 0.0093
GGATGGTGGT | 1.01 ± 0.016
GGATGTAAGA | 1.1 ± 0.18
GGATGTATAG | 0.997 ± 0.052

Sequence | switch fluorescence ratio
GGATTAAAGC | 0.998 ± 0.022
GGATTACTCT | 1.0308 ± 0.00015
GGATTACTGG | 1.03 ± 0.023
GGATTAGCTT | 1.01 ± 0.051
GGATTAGGTG | 1.12 ± 0.017
GGATTAGTGT | 0.987 ± 0.032
GGATTATCGG | 0.976 ± 0.023
GGATTATGTC | 0.975 ± 0.039
GGATTATTGG | 1.002 ± 0.0083
GGATTCAGCT | 0.978 ± 0.027
GGATTCGAAG | 0.9953 ± 0.0071
GGATTCTAAT | 0.982 ± 0.01
GGATTGATGT | 0.972 ± 0.011
GGATTGGGGA | 1.02 ± 0.031
GGATTGGTTG | 0.999 ± 0.038
GGATTGTAAG | 0.991 ± 0.032
GGATTGTAGG | 0.9738 ± 0.0053
GGATTGTATT | 1.02 ± 0.0055
GGATTGTGTT | 0.985 ± 0.0018
GGATTGTTGG | 1.008 ± 0.0033
GGATTGTTGT | 0.994 ± 0.022
GGATTTACGC | 1.03 ± 0.03
GGATTTCAGG | 0.982 ± 0.017
GGATTTCCAG | 0.999 ± 0.03
GGATTTCTTA | 1 ± 0.025
GGATTTGGTT | 1.04 ± 0.036

Sequence | switch fluorescence ratio
GGATTTGTGG | 0.978 ± 0.023
GGCAAAAACG | 1.16 ± 0.22
GGCAAAGGGT | 1.06 ± 0.056
GGCAACTGGG | 1.02 ± 0.05
GGCACAGGGG | 1.91 ± 0.17
GGCACGTGGG | 0.999 ± 0.017
GGCACTAGGG | 0.94 ± 0.077
GGCAGAGTGT | 1 ± 0.063
GGCAGGGGAA | 1.01 ± 0.012
GGCAGTGCGG | 1 ± 0.06
GGCATAGTTT | 0.969 ± 0.026
GGCATATCGT | 0.949 ± 0.041
GGCATATGTA | 0.9829 ± 0.0076
GGCATCCAGG | 1.38 ± 0.064
GGCATGAGAC | 1.06 ± 0.047
GGCATGGTGG | 1.01 ± 0.023
GGCATTATAG | 0.999 ± 0.0097
GGCATTGGAT | 0.962 ± 0.034
GGCCAAGGTC | 1.004 ± 0.004
GGCCAAGGTG | 2.05 ± 0.42
GGCCACTGGA | 1.02 ± 0.021
GGCCAGGGGG | 1 ± 0.09
GGCCATCTGG | 1.04 ± 0.026
